From IntAct's records for PubMed 31515488

B1: Vesicle transport through interaction with t-SNAREs homolog 1B (Homo sapiens), Q9UEU0 (parent)
chain: MASSAASSEHFEKLHEIFRGLHEDLQGVPERLLGTAGTEEKKKLIRDFDEKQQEANETLAEMEEELRYAPLSFRNPMMSKLRNYRKDLAKLHREVRSTPLTATPGGRGDMKYGIYAVENEHMNRLQSQRAMLLQGTESLNRATQSIERSHRIATETDQIGSEIIEELGEQRDQLERTKSRLVNTSENLSKSRKILRSMSRKVTTNKLLLSIIILLELAILGGLVYYKFFRSH
partner: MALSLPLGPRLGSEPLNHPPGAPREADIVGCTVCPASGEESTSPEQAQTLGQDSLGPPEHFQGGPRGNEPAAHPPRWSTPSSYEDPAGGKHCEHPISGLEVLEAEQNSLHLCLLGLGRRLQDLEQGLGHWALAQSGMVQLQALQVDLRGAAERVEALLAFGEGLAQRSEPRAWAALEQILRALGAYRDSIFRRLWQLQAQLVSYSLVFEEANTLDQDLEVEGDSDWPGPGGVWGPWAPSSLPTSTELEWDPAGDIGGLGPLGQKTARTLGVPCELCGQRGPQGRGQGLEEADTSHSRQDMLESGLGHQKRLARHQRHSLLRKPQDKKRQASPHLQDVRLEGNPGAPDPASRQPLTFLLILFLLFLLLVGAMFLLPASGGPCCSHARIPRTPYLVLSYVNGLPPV
B2: Kappa-casein (Homo sapiens), P07498 (parent)
chain: MKSFLLVVNALALTLPFLAVEVQNQKQPACHENDERPFYQKTAPYVPMYYVPNSYPYYGTNLYQRRPAIAINNPYVPRTYYANPAVVRPHAQIPQRQYLPNSHPPTVVRRPNLHPSFIAIPPKKIQDKIIIPTINTIATVEPTPAPATEPTVDSVVTPEAFSESIITSTPETTTVAVTPPTA
B3: Methylthioribulose-1-phosphate dehydratase (Homo sapiens), Q96GX9 (parent)
chain: MSGCDAREGDCCSRRCGAQDKEHPRYLIPELCKQFYHLGWVTGTGGGISLKHGDEIYIAPSGVQKERIQPEDMFVCDINEKDISGPSPSKKLKKSQCTPLFMNAYTMRGAGAVIHTHSKAAVMATLLFPGREFKITHQEMIKGIKKCTSGGYYRYDDMLVVPIIENTPEEKDLKDRMAHAMNEYPDSCAVLVRRHGVYVWGETWEKAKTMCECYDYLFDIAVSMKKVGLDPSQLPVGENGIV
partner: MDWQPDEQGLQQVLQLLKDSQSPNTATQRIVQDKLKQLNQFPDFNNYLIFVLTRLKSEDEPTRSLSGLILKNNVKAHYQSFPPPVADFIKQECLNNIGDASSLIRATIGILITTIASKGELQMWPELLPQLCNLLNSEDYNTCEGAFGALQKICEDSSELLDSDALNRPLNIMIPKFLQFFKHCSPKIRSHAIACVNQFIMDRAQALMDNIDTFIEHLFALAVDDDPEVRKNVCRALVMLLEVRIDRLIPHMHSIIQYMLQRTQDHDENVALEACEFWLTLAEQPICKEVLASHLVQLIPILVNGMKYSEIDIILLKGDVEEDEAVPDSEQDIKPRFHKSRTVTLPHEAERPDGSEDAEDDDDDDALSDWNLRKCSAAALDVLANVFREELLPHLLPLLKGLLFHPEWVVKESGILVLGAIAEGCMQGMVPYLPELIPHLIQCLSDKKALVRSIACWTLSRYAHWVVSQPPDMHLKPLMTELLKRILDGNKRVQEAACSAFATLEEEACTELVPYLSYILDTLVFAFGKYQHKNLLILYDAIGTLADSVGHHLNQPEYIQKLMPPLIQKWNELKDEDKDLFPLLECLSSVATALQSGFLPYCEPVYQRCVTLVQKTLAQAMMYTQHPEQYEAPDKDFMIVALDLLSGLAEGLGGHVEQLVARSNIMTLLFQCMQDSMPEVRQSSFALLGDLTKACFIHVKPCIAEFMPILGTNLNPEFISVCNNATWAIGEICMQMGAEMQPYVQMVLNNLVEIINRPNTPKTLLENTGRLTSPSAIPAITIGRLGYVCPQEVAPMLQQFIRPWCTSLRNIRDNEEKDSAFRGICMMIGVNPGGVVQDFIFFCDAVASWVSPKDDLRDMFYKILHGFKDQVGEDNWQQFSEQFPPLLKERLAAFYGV
B4: Thioredoxin-dependent peroxide reductase, mitochondrial (Homo sapiens), P30048 (parent)
chain: MAAAVGRLLRASVARHVSAIPWGISATAALRPAACGRTSLTNLLCSGSSQAKLFSTSSSCHAPAVTQHAPYFKGTAVVNGEFKDLSLDDFKGKYLVLFFYPLDFTFVCPTEIVAFSDKANEFHDVNCEVVAVSVDSHFSHLAWINTPRKNGGLGHMNIALLSDLTKQISRDYGVLLEGSGLALRGLFIIDPNGVIKHLSVNDLPVGRSVEETLRLVKAFQYVETHGEVCPANWTPDSPTIKPSPAASKEYFQKVNQ
B5: Alpha-ketoglutarate-dependent dioxygenase alkB homolog 3 (Homo sapiens), Q96Q83 (parent)
chain: MEEKRRRARVQGAWAAPVKSQAIAQPATTAKSHLHQKPGQTWKNKEHHLSDREFVFKEPQQVVRRAPEPRVIDREGVYEISLSPTGVSRVCLYPGFVDVKEADWILEQLCQDVPWKQRTGIREDITYQQPRLTAWYGELPYTYSRITMEPNPHWHPVLRTLKNRIEENTGHTFNSLLCNLYRNEKDSVDWHSDDEPSLGRCPIIASLSFGATRTFEMRKKPPPEENGDYTYVERVKIPLDHGTLLIMEGATQADWQHRVPKEYHSREPRVNLTFRTVYPDPRGAPW
partner: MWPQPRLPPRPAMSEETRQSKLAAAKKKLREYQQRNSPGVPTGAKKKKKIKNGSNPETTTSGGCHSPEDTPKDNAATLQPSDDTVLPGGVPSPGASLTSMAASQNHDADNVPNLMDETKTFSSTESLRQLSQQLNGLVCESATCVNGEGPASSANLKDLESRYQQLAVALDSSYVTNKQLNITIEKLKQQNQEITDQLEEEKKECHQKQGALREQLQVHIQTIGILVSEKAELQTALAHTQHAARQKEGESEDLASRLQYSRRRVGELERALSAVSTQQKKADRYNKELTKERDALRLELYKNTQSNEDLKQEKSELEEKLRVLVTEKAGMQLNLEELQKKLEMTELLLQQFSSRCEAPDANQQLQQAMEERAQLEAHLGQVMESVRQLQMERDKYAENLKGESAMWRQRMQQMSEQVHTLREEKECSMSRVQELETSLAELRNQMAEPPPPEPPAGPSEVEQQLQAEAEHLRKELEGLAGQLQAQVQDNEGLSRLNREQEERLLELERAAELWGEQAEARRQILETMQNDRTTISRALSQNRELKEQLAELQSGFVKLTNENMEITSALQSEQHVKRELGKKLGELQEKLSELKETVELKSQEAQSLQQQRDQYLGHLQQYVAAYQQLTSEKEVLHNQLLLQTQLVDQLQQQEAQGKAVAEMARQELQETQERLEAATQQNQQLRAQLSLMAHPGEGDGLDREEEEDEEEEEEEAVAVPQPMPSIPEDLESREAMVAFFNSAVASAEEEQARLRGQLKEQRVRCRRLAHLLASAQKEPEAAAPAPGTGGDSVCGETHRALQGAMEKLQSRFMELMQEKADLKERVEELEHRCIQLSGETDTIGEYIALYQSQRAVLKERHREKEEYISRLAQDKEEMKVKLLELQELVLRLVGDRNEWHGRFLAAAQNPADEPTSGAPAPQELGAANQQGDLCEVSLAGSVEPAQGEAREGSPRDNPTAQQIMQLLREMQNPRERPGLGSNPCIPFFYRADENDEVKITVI
B6: Tuftelin-interacting protein 11 (Homo sapiens), Q9UBB9 (parent)
chain: MSLSHLYRDGEGRIDDDDDERENFEITDWDLQNEFNPNRQRHWQTKEEATYGVWAERDSDDERPSFGGKRARDYSAPVNFISAGLKKGAAEEAELEDSDDEEKPVKQDDFPKDFGPRKLKTGGNFKPSQKGFAGGTKSFMDFGSWERHTKGIGQKLLQKMGYVPGRGLGKNAQGIINPIEAKQRKGKGAVGAYGSERTTQSMQDFPVVDSEEEAEEEFQKELSQWRKDPSGSKKKPKYSYKTVEELKAKGRISKKLTAPQKELSQVKVIDMTGREQKVYYSYSQISHKHNVPDDGLPLQSQQLPQSGKEAKAPGFALPELEHNLQLLIDLTEQEIIQNDRQLQYERDMVVNLFHELEKMTEVLDHEERVISNLSKVLEMVEECERRMQPDCSNPLTLDECARIFETLQDKYYEEYRMSDRVDLAVAIVYPLMKEYFKEWDPLKDCTYGTEIISKWKSLLENDQLLSHGGQDLSADAFHRLIWEVWMPFVRNIVTQWQPRNCDPMVDFLDSWVHIIPVWILDNILDQLIFPKLQKEVENWNPLTDTVPIHSWIHPWLPLMQARLEPLYSPIRSKLSSALQKWHPSDSSAKLILQPWKDVFTPGSWEAFMVKNIVPKLGMCLGELVINPHQQHMDAFYWVIDWEGMISVSSLVGLLEKHFFPKWLQVLCSWLSNSPNYEEITKWYLGWKSMFSDQVLAHPSVKDKFNEALDIMNRAVSSNVGAYMQPGARENIAYLTHTERRKDFQYEAMQERREAENMAQRGIGVAASSVPMNFKDLIETKAEEHNIVFMPVIGKRHEGKQLYTFGRIVIYIDRGVVFVQGEKTWVPTSLQSLIDMAK
partner: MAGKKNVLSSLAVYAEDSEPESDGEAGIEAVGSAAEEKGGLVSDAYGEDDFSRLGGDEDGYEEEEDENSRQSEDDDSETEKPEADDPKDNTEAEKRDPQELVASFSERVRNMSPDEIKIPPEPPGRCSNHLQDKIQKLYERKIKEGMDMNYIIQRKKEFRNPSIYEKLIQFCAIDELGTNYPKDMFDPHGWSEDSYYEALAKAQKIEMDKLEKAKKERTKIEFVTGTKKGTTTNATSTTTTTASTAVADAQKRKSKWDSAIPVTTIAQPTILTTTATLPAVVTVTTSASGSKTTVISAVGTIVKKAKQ
B7: Ras-related protein Rab-39B (Homo sapiens), Q96DA2 (parent)
chain: MEAIWLYQFRLIVIGDSTVGKSCLIRRFTEGRFAQVSDPTVGVDFFSRLVEIEPGKRIKLQIWDTAGQERFRSITRAYYRNSVGGLLLFDITNRRSFQNVHEWLEETKVHVQPYQIVFVLVGHKCDLDTQRQVTRHEAEKLAAAYGMKYIETSARDAINVEKAFTDLTRDIYELVKRGEITIQEGWEGVKSGFVPNVVHSSEEVVKSERRCLC
B8: Tetraspanin-2 (Homo sapiens), O60636 (parent)
chain: MGRFRGGLRCIKYLLLGFNLLFWLAGSAVIAFGLWFRFGGAIKELSSEDKSPEYFYVGLYVLVGAGALMMAVGFFGCCGAMRESQCVLGSFFTCLLVIFAAEVTTGVFAFIGKGVAIRHVQTMYEEAYNDYLKDRGKGNGTLITFHSTFQCCGKESSEQVQPTCPKELLGHKNCIDEIETIISVKLQLIGIVGIGIAGLTIFGMIFSMVLCCAIRNSRDVI
partner: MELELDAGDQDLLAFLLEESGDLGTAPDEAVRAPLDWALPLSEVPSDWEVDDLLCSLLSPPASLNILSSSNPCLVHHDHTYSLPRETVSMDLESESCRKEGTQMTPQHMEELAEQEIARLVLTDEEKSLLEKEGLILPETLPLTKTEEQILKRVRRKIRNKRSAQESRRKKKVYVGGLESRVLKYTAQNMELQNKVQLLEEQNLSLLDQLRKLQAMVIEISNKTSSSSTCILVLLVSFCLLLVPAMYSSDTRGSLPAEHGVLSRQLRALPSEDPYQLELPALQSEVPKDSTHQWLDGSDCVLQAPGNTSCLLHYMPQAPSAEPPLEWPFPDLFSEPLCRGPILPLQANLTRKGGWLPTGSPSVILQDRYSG

Variants of: B1
Conditions: with syne4_human SYNE4, Q8N205

| Variant | effect of a mutation on the interaction |
| --- | --- |
| R124Q | with no effect |
| R176H | with no effect |

Variants of: B2
Conditions: with rbpms_human RBPMS

| Variant | effect of a mutation on the interaction |
| --- | --- |
| R96L | with no effect |

Variants of: B2
Conditions: with dmrtb_human DMRTB1, Q96MA1
Chain of dmrtb_human DMRTB1, Q96MA1 (Q96MA1 whole entry): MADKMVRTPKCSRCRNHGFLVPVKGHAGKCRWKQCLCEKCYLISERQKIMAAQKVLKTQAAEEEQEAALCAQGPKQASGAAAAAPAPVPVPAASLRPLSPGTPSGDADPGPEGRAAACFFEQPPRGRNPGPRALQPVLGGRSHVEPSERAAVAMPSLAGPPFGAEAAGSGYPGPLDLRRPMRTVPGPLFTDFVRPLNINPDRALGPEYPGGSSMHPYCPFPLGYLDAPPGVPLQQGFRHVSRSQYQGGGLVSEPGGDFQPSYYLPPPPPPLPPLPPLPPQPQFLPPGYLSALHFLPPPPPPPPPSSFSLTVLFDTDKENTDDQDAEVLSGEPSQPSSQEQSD

| Variant | effect of a mutation on the interaction |
| --- | --- |
| R96L | with no effect |
| A145T | with no effect |

Variants of: B3
Conditions: with tnpo2_human TNPO2, O14787

| Variant | effect of a mutation on the interaction |
| --- | --- |
| G111A | with no effect |
| M181V | disrupting interaction strength |

Variants of: B4
Conditions: with gors2_human GORASP2, Q9H8Y8

| Variant | effect of a mutation on the interaction |
| --- | --- |
| G173C | with no effect |

Variants of: B5
Conditions: with goga2_human GOLGA2, Q08379

| Variant | effect of a mutation on the interaction |
| --- | --- |
| G39C | with no effect |

Variants of: B6
Conditions: with SAP30BP

| Variant | effect of a mutation on the interaction |
| --- | --- |
| R8Q | with no effect |
| S688L | with no effect |

Variants of: B7
Conditions: with rufy1_human RUFY1, Q96T51
Chain of rufy1_human RUFY1, Q96T51 (Q96T51 whole entry): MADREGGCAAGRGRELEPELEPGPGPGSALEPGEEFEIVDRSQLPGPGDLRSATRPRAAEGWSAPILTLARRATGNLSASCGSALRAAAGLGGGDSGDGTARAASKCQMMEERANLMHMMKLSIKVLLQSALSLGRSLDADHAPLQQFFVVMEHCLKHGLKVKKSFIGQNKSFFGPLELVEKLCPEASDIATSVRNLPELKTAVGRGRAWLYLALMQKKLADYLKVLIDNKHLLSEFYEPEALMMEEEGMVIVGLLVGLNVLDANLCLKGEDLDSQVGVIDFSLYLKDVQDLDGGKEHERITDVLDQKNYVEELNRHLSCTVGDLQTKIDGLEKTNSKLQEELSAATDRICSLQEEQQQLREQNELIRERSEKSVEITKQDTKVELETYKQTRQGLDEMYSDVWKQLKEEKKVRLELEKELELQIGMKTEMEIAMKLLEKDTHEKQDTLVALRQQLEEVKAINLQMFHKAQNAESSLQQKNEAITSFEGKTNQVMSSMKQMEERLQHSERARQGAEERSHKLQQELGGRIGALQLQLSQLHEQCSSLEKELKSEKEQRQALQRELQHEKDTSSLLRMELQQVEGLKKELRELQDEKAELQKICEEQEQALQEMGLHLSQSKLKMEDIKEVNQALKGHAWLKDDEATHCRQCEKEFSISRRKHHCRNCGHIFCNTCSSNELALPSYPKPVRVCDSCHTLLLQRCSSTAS

| Variant | effect of a mutation on the interaction |
| --- | --- |
| R177S | disrupting interaction strength |

Variants of: B8
Conditions: with creb3_human CREB3, O43889

| Variant | effect of a mutation on the interaction |
| --- | --- |
| R118L | with no effect |
